According to US20180118799A1 (NATIONAL INSTITUTE OF ADVANCED INDUSTRIAL SCIENCE AND …, published 2018):
Positions count from the first letter of the chain named.

T1: Fc-fusion G-CSF receptor
T1 construct: also called granulocyte colony-stimulating factor receptor
T1 sequence (Q99062 whole entry, species assumed, looked up): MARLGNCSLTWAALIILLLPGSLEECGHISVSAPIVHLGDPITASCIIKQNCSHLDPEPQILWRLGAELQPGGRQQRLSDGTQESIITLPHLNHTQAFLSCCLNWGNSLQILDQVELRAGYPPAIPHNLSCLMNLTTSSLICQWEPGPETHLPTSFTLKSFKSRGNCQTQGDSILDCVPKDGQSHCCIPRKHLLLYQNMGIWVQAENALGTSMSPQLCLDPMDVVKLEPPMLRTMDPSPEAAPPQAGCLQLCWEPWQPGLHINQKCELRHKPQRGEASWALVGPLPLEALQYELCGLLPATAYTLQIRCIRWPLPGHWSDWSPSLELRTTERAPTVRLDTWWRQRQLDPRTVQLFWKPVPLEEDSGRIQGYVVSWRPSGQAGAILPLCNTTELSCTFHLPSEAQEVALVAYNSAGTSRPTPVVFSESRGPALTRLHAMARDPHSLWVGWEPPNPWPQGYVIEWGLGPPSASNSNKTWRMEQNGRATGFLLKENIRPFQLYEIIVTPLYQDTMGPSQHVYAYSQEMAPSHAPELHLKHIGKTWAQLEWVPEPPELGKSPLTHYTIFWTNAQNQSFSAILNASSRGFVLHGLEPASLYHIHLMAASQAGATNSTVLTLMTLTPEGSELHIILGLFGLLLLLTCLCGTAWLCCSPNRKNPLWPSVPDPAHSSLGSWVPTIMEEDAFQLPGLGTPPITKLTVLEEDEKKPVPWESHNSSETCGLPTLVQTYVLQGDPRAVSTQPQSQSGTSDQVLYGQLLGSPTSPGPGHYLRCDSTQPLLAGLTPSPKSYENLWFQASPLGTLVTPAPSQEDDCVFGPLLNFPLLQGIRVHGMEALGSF

B1: linear control G-CSF (ligand)
chain: MAPLGPASSLPQSFLLKSLEQVRKIQGDGAALQEKLCATYKLCHPEELVLLGHSLGIPWAPLSSCPSQALQLAGCLSQLHSGLFLYQGLLQALEGISPELGPTLDTLQLDVADFATTIWQQMEELGMAPALQPTQGAMPAFASAFQRRAGGVLVASHLQSFLEVSYRVLRHLAQP
notes: Linear polypeptide of 175 amino acids; also called linear G-CSF
B2: G-CSF(C163) (ligand)
chain: SQSFLLKSLEQVRKIQGDGAALQEKLCATYKLCHPEELVLLGHSLGIPWAPLSSCPSQALQLAGCLSQLHSGLFLYQGLLQALEGISPELGPTLDTLQLDVADFATTIWQQMEELGMAPALQPTQGAMPAFASAFQRRAGGVLVASHLQSFLEVSYRVLRHLG
modifications: backbone cyclized: amino group of serine at the N-terminus and carbonyl group of glycine at the C-terminus linked by a peptide bond
notes: also called cyclized G-CSF(C163)
B3: G-CSF(C177) (ligand)
chain: SMAPLGPASSLPQSFLLKSLEQVRKIQGDGAALQEKLCATYKLCHPEELVLLGHSLGIPWAPLSSCPSQALQLAGCLSQLHSGLFLYQGLLQALEGISPELGPTLDTLQLDVADFATTIWQQMEELGMAPALQPTQGAMPAFASAFQRRAGGVLVASHLQSFLEVSYRVLRHLAQPG
modifications: backbone cyclized: amino group of serine at the N-terminus and carbonyl group of glycine at the C-terminus linked by a peptide bond
notes: Cyclized with split inteins; also called cyclized G-CSF(C177)
B4: filgrastim (ligand)
chain: B1 chain with A2T, S18C
notes: Its source in the assay is not described
B5: G-CSF(C166) (ligand)
chain: SSLPQSFLLKSLEQVRKIQGDGAALQEKLCATYKLCHPEELVLLGHSLGIPWAPLSSCPSQALQLAGCLSQLHSGLFLYQGLLQALEGISPELGPTLDTLQLDVADFATTIWQQMEELGMAPALQPTQGAMPAFASAFQRRAGGVLVASHLQSFLEVSYRVLRHLG
modifications: backbone cyclized: amino group of serine at the N-terminus and carbonyl group of glycine at the C-terminus linked by a peptide bond
notes: also called cyclized G-CSF(C166)
B6: G-CSF(C170) (ligand)
chain: SGPASSLPQSFLLKSLEQVRKIQGDGAALQEKLCATYKLCHPEELVLLGHSLGIPWAPLSSCPSQALQLAGCLSQLHSGLFLYQGLLQALEGISPELGPTLDTLQLDVADFATTIWQQMEELGMAPALQPTQGAMPAFASAFQRRAGGVLVASHLQSFLEVSYRVLRHLG
modifications: backbone cyclized: amino group of serine at the N-terminus and carbonyl group of glycine at the C-terminus linked by a peptide bond
notes: 170 amino acids; also called cyclized G-CSF(C170)

Target: T1, Fc-fusion G-CSF receptor
Assay: SPR, Biacore T100, Fc-fusion G-CSF receptor captured on immobilized Protein G, single kinetic mode, 25 C (Example 8)
Protocol: First, Protein G was immobilized on a flow cell of a sensor chip CMS (GE Health care) by using a maleimide coupling reaction. Next, a running buffer HBS-P (10 mM HEPES pH 7.4, 150 mM NaCl, and 0.05% v/v Surfactant P20) in which an Fc-fusion G-CSF receptor had been dissolved was added to immobilize the receptor on the chip. The SPR measurement was carried out using Biacore T100 (Biacore) and the reaction temperature was 25° C. A 2-fold dilution series from 1.25 nM to 20 nM of the sample solution was prepared, and a single kinetic mode was used for measurement and analysis.
(§1) The observation results were analyzed using BIAevaluation version 4.1 to calculate a dissociation constant.

| Kd [nM] | Binder |
| --- | --- |
| 0.43 | B1 |
| 0.57 | B2 |
| 0.57 | B3 |

Target: T1, Fc-fusion G-CSF receptor
Assay: SPR, Biacore T200, Fc-fusion G-CSF receptor captured on immobilized Protein A, single kinetic mode, 25 C (Example 19)
Protocol: (§2) First, commercially available Protein A (Nacalai Tesque, Inc.) was immobilized on a flow cell of a sensor chip CM5 (GE Health care) by using an amine coupling reaction. Next, a running buffer HBS-P (10 mM HEPES pH 7.4, 150 mM NaCl, and 0.05% v/v Surfactant P20) in which an Fc-fusion G-CSF receptor had been dissolved was added to immobilize the receptor on the chip. The SPR measurement was carried out using Biacore T200 (Biacore) and the reaction temperature was 25° C. A 2-fold dilution series from 1.25 nM to 20 nM of the sample solution was prepared, and a single kinetic mode was used for measurement and analysis. When compared with Example 8, this Example had improvements such as use of Biacore T200, which has higher sensitivity than Biacore T100, and use of commercially available Protein A. The improvements helped increase the sensitivity and reproducibility of measurement. Then, the linear G-CSF, G-CSF(C177), and G-CSF(C163) as measured in Example 8 were remeasured and the resulting analysis values were used for comparison.
as §1

| Kd [nM] | Binder |
| --- | --- |
| 0.27 | B4 |
| 0.06 | B5 |
| 0.05 | B6 |

Target: T1, Fc-fusion G-CSF receptor
Assay: SPR, Biacore T200, Fc-fusion G-CSF receptor captured on immobilized Protein A, single kinetic mode, 25 C (Example 19, remeasured)
Protocol: as §2

| Kd [nM] | Binder |
| --- | --- |
| 0.08 | B1 |
| 0.1 | B2 |
| 0.06 | B3 |
